Experimental findings from US20220023399 are described below.

Series [1] concerns the target T1, rabbit serum albumin, P49065.
T1 chain: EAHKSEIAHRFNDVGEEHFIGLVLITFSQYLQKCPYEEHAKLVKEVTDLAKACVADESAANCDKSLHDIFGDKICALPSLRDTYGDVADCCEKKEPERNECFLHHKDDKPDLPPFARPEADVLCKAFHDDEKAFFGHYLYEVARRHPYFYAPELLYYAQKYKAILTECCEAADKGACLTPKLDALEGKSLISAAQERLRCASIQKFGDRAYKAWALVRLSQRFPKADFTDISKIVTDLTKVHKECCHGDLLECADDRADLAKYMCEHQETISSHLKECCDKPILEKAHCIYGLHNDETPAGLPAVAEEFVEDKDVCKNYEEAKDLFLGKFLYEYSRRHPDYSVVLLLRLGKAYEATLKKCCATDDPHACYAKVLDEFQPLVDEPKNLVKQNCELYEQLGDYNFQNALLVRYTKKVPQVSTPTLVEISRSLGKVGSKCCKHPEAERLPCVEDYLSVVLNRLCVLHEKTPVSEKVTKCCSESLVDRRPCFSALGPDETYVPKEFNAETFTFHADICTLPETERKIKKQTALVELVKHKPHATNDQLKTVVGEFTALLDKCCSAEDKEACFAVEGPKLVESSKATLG

Some results are limits rather than exact numbers.

B1: PlySs2 (CF-301) lysin (protein)
chain: MTTVNEALNNVRAQVGSGVSVGNGECYALASWYERMISPDATVGLGAGVGWVSGAIGDTISAKNIGSSYNWQANGWTVSTSGPFKAGQIVTLGATPGNPYGHVVIVEAVDGDRLTILEQNYGGKRYPVRNYYSAASYRQQVVHYITPPGTVAQSAPNLAGSRSYRETGTMTVTVDALNVRRAPNTSGEIVAVYKRGESFDYDTVIIDVNGYVWVSYIGGSGKRNYVATGATKDGKRFGNAWGTFK
On to B1, for which, in the series with human serum albumin, the Fold decrease in CF-301 MIC compared to media alone (delipidated human serum + Oleate 0.625 mg/mL) was determined as 8 fold; the Fold decrease in CF-301 MIC compared to media alone (delipidated human serum + Palmitate 0.625 mg/mL) stood at 16 fold; the Fold decrease in CF-301 MIC compared to media alone (delipidated human serum + Palmitate + Oleate) turned out to be 16 fold; the Fold decrease in MIC (50% MHB/50% heat-inactivated human serum supplemented with HSA, 40 mg/mL) turned out to be 4 fold. Besides, in the series with human serum albumin, the Fold decrease in MIC (MHB supplemented with HSA, 40 mg/mL) is 8 fold; the Fold increase in CF-301 specific activity with rHSA, 4% stood at 17.8 fold; the Specific Activity (Units/mg) of CF-301 in the lytic assay with rHSA, 4% was determined as 43100 Units/mg; the “ΣFICavg (checkerboard, S. aureus, heat-inactivated human serum); HSA fraction V” value is ≤0.086. For the same protein, the “ΣFICavg (checkerboard, S. aureus, heat-inactivated human serum); HSA recombinant” value in the series with human serum albumin is ≤0.1. In series [1], the Fold decrease in MIC (50% MHB/50% heat-inactivated human serum supplemented with RabSA, 40 mg/mL) came to 4 fold; the Fold decrease in MIC (MHB supplemented with RabSA, 40 mg/mL) came out at 8 fold; the “ΣFICavg (checkerboard, S. aureus, heat-inactivated human serum); rabbit serum albumin from serum” value is listed as ≤0.1.
